# Experimental data taken from patent US20240417484A1, “ANTIGEN-BINDING POLYPEPTIDES AGAINST CD73” (UNIVERSITÄTSKLINIKUM HAMBURG-EPPENDORF, priority 2021, published 2024).
# T1: recombinant human CD73 ectodomain (aa 27-549) with C-terminal His6x tag (human, UniProt P21589 27-549)
# T1 construct: also called soluble recombinant human CD73; soluble human CD73
# T1 sequence: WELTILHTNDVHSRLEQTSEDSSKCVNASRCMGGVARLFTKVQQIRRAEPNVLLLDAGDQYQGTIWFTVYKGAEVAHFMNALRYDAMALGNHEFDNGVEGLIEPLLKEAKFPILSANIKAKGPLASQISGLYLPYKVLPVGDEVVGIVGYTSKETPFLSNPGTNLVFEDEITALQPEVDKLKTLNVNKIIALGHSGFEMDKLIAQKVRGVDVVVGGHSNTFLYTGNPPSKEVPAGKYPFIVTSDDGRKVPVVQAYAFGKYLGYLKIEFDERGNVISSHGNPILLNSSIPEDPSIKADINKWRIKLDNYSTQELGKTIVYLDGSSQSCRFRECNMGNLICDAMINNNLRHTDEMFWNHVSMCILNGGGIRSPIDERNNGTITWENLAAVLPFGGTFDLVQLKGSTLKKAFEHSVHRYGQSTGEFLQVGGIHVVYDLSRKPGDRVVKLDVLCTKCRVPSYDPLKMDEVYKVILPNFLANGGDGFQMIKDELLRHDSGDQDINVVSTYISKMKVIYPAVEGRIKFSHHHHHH
# T2: human CD73 on cells (CD73-transfected HEK cells; native on PBMCs; OCI-AML3 cells) (human, UniProt P21589 27-549)
# T2 construct: also called NT5E; gene ID 4907
# T2 sequence: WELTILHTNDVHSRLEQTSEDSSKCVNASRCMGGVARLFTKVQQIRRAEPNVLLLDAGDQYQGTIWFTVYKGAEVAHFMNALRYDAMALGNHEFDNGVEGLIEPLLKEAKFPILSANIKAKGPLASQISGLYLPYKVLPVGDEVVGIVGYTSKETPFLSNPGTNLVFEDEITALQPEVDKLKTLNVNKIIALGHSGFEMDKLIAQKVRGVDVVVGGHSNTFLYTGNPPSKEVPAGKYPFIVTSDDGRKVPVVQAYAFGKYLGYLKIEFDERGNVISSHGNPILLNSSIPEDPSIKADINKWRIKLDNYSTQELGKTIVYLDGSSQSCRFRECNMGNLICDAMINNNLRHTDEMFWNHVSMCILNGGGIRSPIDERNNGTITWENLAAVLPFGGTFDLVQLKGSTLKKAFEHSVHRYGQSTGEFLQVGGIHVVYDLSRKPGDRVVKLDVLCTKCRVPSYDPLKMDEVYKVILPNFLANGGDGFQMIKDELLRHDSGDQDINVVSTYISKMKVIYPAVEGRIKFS
# T3: mouse CD73 on transfected HEK cells (mouse, UniProt Q61503 29-551)
# T3 construct: whole, on cells; also called murine CD73; gene ID 23959
# T3 sequence (looked up): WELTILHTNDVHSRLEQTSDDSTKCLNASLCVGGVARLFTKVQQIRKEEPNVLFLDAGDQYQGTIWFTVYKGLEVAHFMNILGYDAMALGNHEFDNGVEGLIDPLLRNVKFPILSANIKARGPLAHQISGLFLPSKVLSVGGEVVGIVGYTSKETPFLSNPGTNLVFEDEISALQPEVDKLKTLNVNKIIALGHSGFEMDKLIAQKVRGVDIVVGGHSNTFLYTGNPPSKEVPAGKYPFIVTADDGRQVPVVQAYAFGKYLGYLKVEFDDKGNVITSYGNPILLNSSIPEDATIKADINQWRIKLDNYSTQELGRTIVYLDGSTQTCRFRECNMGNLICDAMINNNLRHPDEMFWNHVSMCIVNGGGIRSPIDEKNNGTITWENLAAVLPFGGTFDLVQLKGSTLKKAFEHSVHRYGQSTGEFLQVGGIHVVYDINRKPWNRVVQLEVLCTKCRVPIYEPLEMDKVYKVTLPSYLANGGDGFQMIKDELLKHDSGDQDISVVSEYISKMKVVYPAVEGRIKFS
# Legend:
# [1] = molecular target: T1, recombinant human CD73 ectodomain (aa …); assay: BLI (Octet), immobilized Nb-rbIgG hcAb, soluble human CD73 as analyte
# Description: The binding off-rate constants of bivalent hcAbs to human and mouse CD73 protein were determined by […] kinetic analysis on Octet RED96 (ForteBio). Immobilization of rabbit IgG hcAbs on the protein A-biosensor surface was done in HEK-6E cell supernatant, and regeneration of analytes was done with 100 mM Glycin pH=2.5. Recombinant mouse or human CD73 ectodomain was used as analytes and tested at a saturating dose of 200 ng/μl. Sensorgrams were fitted using least square regression in association than dissociation Model in Prism8 (Graphpad).
# [2] = molecular target: T2, human CD73 on cells (CD73-transfected …); assay: flow cytometry, human CD73-expressing cells; competitor: human IgG hcAb SB121
# Description: (§1) The binding specificities of the purified hcAbs were determined by flow cytometry using HEK cells transiently co-transfected with expression vectors for GFP and either mouse CD73, human CD73 or a control protein (CD39). 1×10⁶ cells were incubated with 10 μl of the Nb-rbIgG hcAb containing HEK-6E cell supernatants for 30 min at 4° C. […] The cells were resuspended in PBS and analyzed by flow cytometry on FACS Canto or FACS Celesta (BD Biosciences, Heidelberg). Data evaluation was conducted using the software FlowJo (Treestar, Stanford, US).
# (§2) To evaluate the epitopes on the CD73 protein recognized by different VHHs, representative rabbit IgG hcAbs were binned against a set of human IgG hcAbs, and bound hcAbs were detected with a PE-conjugated anti-rabbit IgG secondary antibody. Cells were pre-incubated with excess human IgG hcAbs for […] at RT to block specific epitopes before addition of rabbit IgG hcAbs as detectors and further incubation for 15 min at RT. Cells were washed, and bound antibodies were detected with PE-conjugated anti-rabbit IgG polyclonal antibody. Cells were washed and analyzed by flow cytometry on a BD-FACS Canto. Data were analyzed using the FlowJo software (Treestar). Lack of blockade by a non-binding control human IgG hcAb served as negative control (unblocked), and blockade of binding with the same VHH carrying human IgG hcAb as the rabbit IgG hcAb used for detection served as positive controls for blocking. Values for blocking were determined by comparing the mean fluorescence intensities (MFIs) of PE staining of transfected cells for unblocked vs blocked rabbit hcAbs using the formula: inhibition (%)=100−(MFI (blocked)/MFI MFI(unblocked)*100). The values were rounded to whole percentages.
# [3] = molecular target: T2, human CD73 on cells (CD73-transfected …); assay: flow cytometry, human CD73-expressing cells; competitor: human IgG hcAb SB141
# Description: as §1, §2
# [4] = molecular target: T2, human CD73 on cells (CD73-transfected …); assay: flow cytometry, human CD73-expressing cells; competitor: human IgG hcAb SB139
# Description: as §1, §2
# [5] = molecular target: T2, human CD73 on cells (CD73-transfected …); assay: flow cytometry, human CD73-expressing cells; competitor: IPH5301
# Description: as §1, §2
# [6] = molecular target: T2, human CD73 on cells (CD73-transfected …); assay: flow cytometry, human CD73-expressing cells; competitor: human IgG hcAb SB143
# Description: as §1, §2
# [7] = molecular target: T2, human CD73 on cells (CD73-transfected …); assay: flow cytometry, human CD73-expressing cells; competitor: human IgG hcAb SB116
# Description: as §1, §2
# [8] = molecular target: T2, human CD73 on cells (CD73-transfected …); assay: flow cytometry, human CD73-expressing cells; competitor: MEDI9447
# Description: as §1, §2
# [9] = molecular target: T2, human CD73 on cells (CD73-transfected …); assay: flow cytometry, human CD73-expressing cells; competitor: human IgG hcAb SB96
# Description: as §1, §2
# [10] = molecular target: T3, mouse CD73 on transfected HEK cells; assay: specificity column, binding to human (h) and mouse (m) CD73
# Description: as §1
Binder,koff [1],percent inhibition of binding [2],percent inhibition of binding [3],percent inhibition of binding [4],percent inhibition of binding [5],percent inhibition of binding [6],percent inhibition of binding [7],percent inhibition of binding [8],percent inhibition of binding [9],binding result [10]
"SB143 rabbit IgG hcAb (Fc fusion, not shown: hinge and Fc-domains of rabbit IgG) heavy: QVQLVESGGGLVQAGGSLRLSCAASGRTFSRSTMGWFRQAPGKERVFVAAIRWIGGTTTYGDSVKGRFTISVDNAKNTLYLQMNSLKPEDTAVYYCAATAGGPYYLGGRDILYDYWGQGTQVTVSS",0.0013 s⁻¹,13%,35%,16%,99%,91%,97%,98%,100%,
"SB144 rabbit IgG hcAb (Fc fusion, not shown: hinge and Fc-domains of rabbit IgG) heavy: QVQLVESGGGLVQAGGSLRLSCAASGRTFSGSTMGWFRQAPGKERAFVAAIRWIGGTAKYGDSVKGRFTISIDNAKNTLYLQMNSLKPEDTAVYYCAATAGGPDYLGGRDIVYDYWGQGTQVTVSS",0.00023 s⁻¹,,,,,,,,,binds
"SB141 rabbit IgG hcAb (Fc fusion, not shown: hinge and Fc-domains of rabbit IgG) heavy: QVQLVESGGGLVQPGGSLRLSCAASGFTFINYHMSWLRQAPGKGLEWVSEIHSRGDITSYTNSVKGRFTISRDNAKNTLYLQMNSLKFDDTAVYYCARSRDLFNEGEYDYWGRGTQVTVSS",0.00045 s⁻¹,-1%,84%,-7%,40%,66%,16%,26%,13%,
"SB96 rabbit IgG hcAb (Fc fusion, VHH fused upstream of hinge and Fc of rabbit IgG; also called Nb-rbIgG hcAb SB96; not shown: hinge and Fc-domains of rabbit IgG) heavy: DVQLQASGGGLVQPGGSLRLSCTASGFTLDYLSIGWFRQVPGKEREGVSCINSSGGSTNYADSLKGRLTISRDNAKNTVYLQMNSLKPEDTAVYYCAAHKYYYCSNKVEVFDYWGQGTPVTVSS",3.9e-05 s⁻¹,-29%,17%,-25%,90%,70%,73%,92%,100%,binds
"SB121 rabbit IgG hcAb (Fc fusion, not shown: hinge and Fc-domains of rabbit IgG) heavy: QVQLQESGGGLVQAGGSLRLSCAASGSIGSIIAMGWYRQGPGKQRELVARMFTDDGSTNYDDSVKGRFTISRDSAGTTVYLQMNSLKPEDTAVYYCNAQRRWNAYWGPGTQVTVSS",0.022 s⁻¹,69%,77%,0%,77%,85%,75%,74%,53%,binds
"SB139 rabbit IgG hcAb (Fc fusion, not shown: hinge and Fc-domains of rabbit IgG) heavy: QVQLQESGGGLVQAGGSLRLSCAASENIFNIYGMGWYRQAPGKLRDLVAKITSGGRTTYADSVKGRFTISGDNAKNTVYLQMNSLKPEDTAVYYCNSYYYWGQGTQVTVSS",0.046 s⁻¹,3%,47%,50%,66%,77%,75%,73%,76%,binds
"SB116 rabbit IgG hcAb (Fc fusion, also called SB116-rbFc; dimeric SB116 Fc construct; not shown: hinge and Fc-domains of rabbit IgG) heavy: QVKLQESGGGRVQTGGSLRLSCAASGISFSITTMYWYRQAPGEQRQLVALITDRGNTYYVDSVKGRFTISRDDSKNTVYLQMNDLKPEDTAVYFCNSIPGNDWGQGTQVTVSS",0.00017 s⁻¹,6%,47%,2%,94%,65%,72%,97%,100%,binds
